In the Human Domainome abundance scans (Beltran et al. 2025):
± gives the uncertainty stated by the source.

B1: Spectrin alpha chain, erythrocytic 1, residues 979 to 1036; numbered along this chain, P02549 (parent)
chain: EQRVMALYDFQARSPREVTMKKGDVLTLLSSINKDWWKVEAADHQGIVPAVYVRRLAH

Variants of: B1
Assay: abundance fitness (aPCA) (normalised: wild type 0, dead -1); higher = more abundant; growth selection in yeast, the domain comes from the species named
Conditions: Homo sapiens

Point of comparison: EQRVMALYEFQARSPREVTMKKGDVLTLLSSINKDWWKVEAADHQGIVPAVYVRRLAH, abundance fitness -1.01 ± 0.41. Against it:
- EQRVMAVYDFQARSPREVTMKKGDVLTLLSSINKDWWKVEAADHQGIVPAVYVRRLAH — higher, -0.199 ± 0.15
- EQRVMAAYDFQARSPREVTMKKGDVLTLLSSINKDWWKVEAADHQGIVPAVYVRRLAH — within error, -0.609 ± 0.12
- EQRVMAWYDFQARSPREVTMKKGDVLTLLSSINKDWWKVEAADHQGIVPAVYVRRLAH — within error, -0.716 ± 0.22
- EQRVMADYDFQARSPREVTMKKGDVLTLLSSINKDWWKVEAADHQGIVPAVYVRRLAH — within error, -0.135 ± 0.48
- EQRVMAMYDFQARSPREVTMKKGDVLTLLSSINKDWWKVEAADHQGIVPAVYVRRLAH — higher, -0.049 ± 0.14
- EQRVMAHYDFQARSPREVTMKKGDVLTLLSSINKDWWKVEAADHQGIVPAVYVRRLAH — within error, -1.18 ± 0.43
- EQRVMAGYDFQARSPREVTMKKGDVLTLLSSINKDWWKVEAADHQGIVPAVYVRRLAH — within error, -0.559 ± 0.12
- EQRVMARYDFQARSPREVTMKKGDVLTLLSSINKDWWKVEAADHQGIVPAVYVRRLAH — within error, -0.686 ± 0.14
- EQRVMAPYDFQARSPREVTMKKGDVLTLLSSINKDWWKVEAADHQGIVPAVYVRRLAH — within error, -0.76 ± 0.14
- EQRVMASYDFQARSPREVTMKKGDVLTLLSSINKDWWKVEAADHQGIVPAVYVRRLAH — within error, -0.85 ± 0.29
- EQRVMAKYDFQARSPREVTMKKGDVLTLLSSINKDWWKVEAADHQGIVPAVYVRRLAH — higher, -0.176 ± 0.35
- EQRVMALYDSQARSPREVTMKKGDVLTLLSSINKDWWKVEAADHQGIVPAVYVRRLAH — within error, -0.707 ± 0.21
- EQRVMALYDCQARSPREVTMKKGDVLTLLSSINKDWWKVEAADHQGIVPAVYVRRLAH — within error, -1.09 ± 0.33
- EQRVMALYDVQARSPREVTMKKGDVLTLLSSINKDWWKVEAADHQGIVPAVYVRRLAH — within error, -0.992 ± 0.23
- EQRVMALYDLQARSPREVTMKKGDVLTLLSSINKDWWKVEAADHQGIVPAVYVRRLAH — within error, -0.658 ± 0.16
- EQRVMALYDRQARSPREVTMKKGDVLTLLSSINKDWWKVEAADHQGIVPAVYVRRLAH — higher, -0.472 ± 0.11
- EQRVMALYDDQARSPREVTMKKGDVLTLLSSINKDWWKVEAADHQGIVPAVYVRRLAH — within error, -0.834 ± 0.36
- EQRVMALYDIQARSPREVTMKKGDVLTLLSSINKDWWKVEAADHQGIVPAVYVRRLAH — within error, -0.341 ± 0.44
- EQRVMALYDWQARSPREVTMKKGDVLTLLSSINKDWWKVEAADHQGIVPAVYVRRLAH — higher, 0.365 ± 0.085
- EQRVMALYDGQARSPREVTMKKGDVLTLLSSINKDWWKVEAADHQGIVPAVYVRRLAH — within error, -0.996 ± 0.44
- EQRVMALYDQQARSPREVTMKKGDVLTLLSSINKDWWKVEAADHQGIVPAVYVRRLAH — within error, -0.607 ± 0.11
- EQRVMALYDAQARSPREVTMKKGDVLTLLSSINKDWWKVEAADHQGIVPAVYVRRLAH — within error, -0.778 ± 0.1
- EQRVMALYDYQARSPREVTMKKGDVLTLLSSINKDWWKVEAADHQGIVPAVYVRRLAH — higher, 0.625 ± 0.12
- EQRVMALYDPQARSPREVTMKKGDVLTLLSSINKDWWKVEAADHQGIVPAVYVRRLAH — within error, -0.712 ± 0.2
- EQRVMALYMFQARSPREVTMKKGDVLTLLSSINKDWWKVEAADHQGIVPAVYVRRLAH — within error, -0.855 ± 0.19
- EQRVMALYNFQARSPREVTMKKGDVLTLLSSINKDWWKVEAADHQGIVPAVYVRRLAH — within error, -0.651 ± 0.48
- EQRVMALYWFQARSPREVTMKKGDVLTLLSSINKDWWKVEAADHQGIVPAVYVRRLAH — within error, -1.02 ± 0.2
- EQRVMALYSFQARSPREVTMKKGDVLTLLSSINKDWWKVEAADHQGIVPAVYVRRLAH — within error, -0.754 ± 0.23
- EQRVMALYLFQARSPREVTMKKGDVLTLLSSINKDWWKVEAADHQGIVPAVYVRRLAH — within error, -0.566 ± 0.16
- EQRVMALYVFQARSPREVTMKKGDVLTLLSSINKDWWKVEAADHQGIVPAVYVRRLAH — within error, -0.934 ± 0.14
- EQRVMALYGFQARSPREVTMKKGDVLTLLSSINKDWWKVEAADHQGIVPAVYVRRLAH — within error, -0.652 ± 0.11
- EQRVMALYTFQARSPREVTMKKGDVLTLLSSINKDWWKVEAADHQGIVPAVYVRRLAH — within error, -0.862 ± 0.3
- EQRVMALYAFQARSPREVTMKKGDVLTLLSSINKDWWKVEAADHQGIVPAVYVRRLAH — higher, -0.166 ± 0.15
- EQRVMALYRFQARSPREVTMKKGDVLTLLSSINKDWWKVEAADHQGIVPAVYVRRLAH — within error, -0.943 ± 0.23
- EQRVMYLYDFQARSPREVTMKKGDVLTLLSSINKDWWKVEAADHQGIVPAVYVRRLAH — within error, -0.794 ± 0.31
- EQRVMNLYDFQARSPREVTMKKGDVLTLLSSINKDWWKVEAADHQGIVPAVYVRRLAH — within error, -0.44 ± 0.37
- EQRVMTLYDFQARSPREVTMKKGDVLTLLSSINKDWWKVEAADHQGIVPAVYVRRLAH — within error, -0.685 ± 0.41
- EQRVMVLYDFQARSPREVTMKKGDVLTLLSSINKDWWKVEAADHQGIVPAVYVRRLAH — within error, -0.861 ± 0.13
- EQRVMPLYDFQARSPREVTMKKGDVLTLLSSINKDWWKVEAADHQGIVPAVYVRRLAH — within error, -0.882 ± 0.19
- EQRVMWLYDFQARSPREVTMKKGDVLTLLSSINKDWWKVEAADHQGIVPAVYVRRLAH — within error, -0.754 ± 0.098
- EQRVMQLYDFQARSPREVTMKKGDVLTLLSSINKDWWKVEAADHQGIVPAVYVRRLAH — within error, -0.975 ± 0.2
- EQRVMRLYDFQARSPREVTMKKGDVLTLLSSINKDWWKVEAADHQGIVPAVYVRRLAH — within error, -0.767 ± 0.17
- EQRVMSLYDFQARSPREVTMKKGDVLTLLSSINKDWWKVEAADHQGIVPAVYVRRLAH — within error, -0.496 ± 0.26
- EQRVMALADFQARSPREVTMKKGDVLTLLSSINKDWWKVEAADHQGIVPAVYVRRLAH — higher, 0.346 ± 0.28
- EQRVMALFDFQARSPREVTMKKGDVLTLLSSINKDWWKVEAADHQGIVPAVYVRRLAH — higher, 0.772 ± 0.34
